Results on three molecules are retold here after patent US20250320277A1 (ALBERT EINSTEIN COLLEGE OF MEDICINE, published 2025).

Assay [1] concerns the target T1, MAYV p62-E1 (Mayaro virus (BeAr 20290)).
T1 construct: extracellular domain
As to the kind of experiment: ELISA, plate-coated p62-E1, eight-point mAb dilution.

Assay [2] concerns the target T1, MAYV p62-E1. The assay can be described thus: BLI, […], global 1:1 fit; […]. On the technique in general: Biolayer interferometry detects binding as a change in optical thickness at a sensor tip.
The target in assay [3] is T1, MAYV p62-E1.

B1: DC2.M301 (antibody, V domains shown)
VH: QVQLVQSGAEVKKPGAAVKVSCKASGYTFSGYYIHWVRQAPGQGLEWMGWINPNSGGTDFAQKFQGRVTMTRDTSISTAYMELSRLRSDDTAVYLCSRDPGYTYGYPLGYWGQGTLVTVSS
VL: ETTLTQSPGTLSLSPGERATLSCRASQSVSSSYLAWYQQKPGQAPRLLIYGTSSRATGIPDRFSGRGSGTDFTLTISRLEPEDFAVYYCQQYGNSPPYTFGQGTKVDIK
In general, EC50 refers to the concentration that produces a half-maximal response. A low value points to a more potent agent. In general, Kd refers to the equilibrium constant for the complex coming apart. The term koff denotes the rate constant with which the complex falls apart. Low values mean slow dissociation, high ones fast dissociation. What is called kon is the rate constant with which the complex forms. Read a high kon as faster complex formation. In the assay with MAYV p62-E1 [1], B1 came in with an EC50 of 4.6 nM. For the same molecule, the Kd in the assay with MAYV p62-E1 [2] came to 15 nM. Further, in the assay with MAYV p62-E1 [3], the koff was determined as 0.0047 s⁻¹ and the kon was found to be 300000 M⁻¹ s⁻¹.

B2: DC2.M17 (antibody, V domains shown)
VH: EVQLVESGSELKKPGASVRVSCEASGYSFTSHTIVWMRQAPGQGLECLGWINTNTGNPTYAQGFTGRFVFSLDTSVSTAYLQISSLKAADTAVYYCARVLKCLGGSASCSGHGYYDYGMAVWGQGTTVTVSS
VL: DIVLTQSPLSLPVTPGEPASISCRSSQSLLHSNGYNFLHWYLQKPGQSPQLLIYLGSIRASGVPDRFSGSGSGTDFTLKISRVEAEDVGVYYCMQALQTFMYTFGQGTKLEIK
In the assay with MAYV p62-E1 [1], B2 yielded an EC50 of 1.9 nM.

B3: DC2.M287 (antibody, V domains shown)
VH: EVQLVESGGGLVQPGGSLRLSCAASGFTFRDYWMIWVRQTPGKGLEWVANINRNGNEKHYVDSLKGRFTISRDNTKNSLYLQVNGLSAEDTAVYYCVRDSSPSFGPGNYYDAFDIWGQGTTVTVSS
VL: DIRVTQSPSSLSASVGDRVTITCRASQDIRNEVGWYQQKPGQAPKVLIFAASTLQSGVPSRFRGSGSGTVFTLTISSLQPEDLATYYCLQDFNYPRTFGQGTKVDIK
In the assay with MAYV p62-E1 [1], B3 gave an EC50 of 220 nM.
